The source of these data is article PMC10838290 (2024).

This test addresses GST-tagged ANKRD1 recombinant protein (Homo sapiens (Human), UniProt Q15327). The test can be described thus: GST pulldown with western blot. Background: A western blot detects proteins with antibodies after separation by electrophoresis.

GST-tagged ANKRD1 recombinant protein, sequence (Q15327 whole entry): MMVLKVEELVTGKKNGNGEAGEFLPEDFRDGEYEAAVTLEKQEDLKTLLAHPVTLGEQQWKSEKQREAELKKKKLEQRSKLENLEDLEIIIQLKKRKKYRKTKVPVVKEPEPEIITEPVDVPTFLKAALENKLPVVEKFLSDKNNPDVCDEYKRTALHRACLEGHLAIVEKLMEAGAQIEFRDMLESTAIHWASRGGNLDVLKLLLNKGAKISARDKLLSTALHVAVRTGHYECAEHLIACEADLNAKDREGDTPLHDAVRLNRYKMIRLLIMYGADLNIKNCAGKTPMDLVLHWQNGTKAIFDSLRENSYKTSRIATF

B1: HIS-tagged JUN (truncated form 1-241aa) (protein)
chain: MTAKMETTFYDDALNASFLPSESGPYGYSNPKILKQSMTLNLADPVGSLKPHLRAKNSDLLTSPDVGLLKLASPELERLIIQSSNGHITTTPTPTQFLCPKNVTDEQEGFAEGFVRALAELHSQNTLPSVTSAAQPVNGAGMVAPAVASVAGGSGSGGFSASLHSEPPVYANLSNFNPGALSSGGGAPSYGAAGLAFPAQPQQQQQPPHHLPQQMPVQHPRLQALKEEPQTVPEMPGETPP
Take B1: the binding result is “no binding”.
